Experimental data reported in US20220153854A1 (Ablynx, published 2022).
Numbering of substitutions follows the chain as printed.

Tests used:
cyno OX40L [1] = biological target: T1, cyno OX40L (cynomolgus monkey, UniProt G7NVH7 51-183); assay: SPR
T1 construct: also called cyOX40L; cynomolgus monkey OX40L
T1 sequence: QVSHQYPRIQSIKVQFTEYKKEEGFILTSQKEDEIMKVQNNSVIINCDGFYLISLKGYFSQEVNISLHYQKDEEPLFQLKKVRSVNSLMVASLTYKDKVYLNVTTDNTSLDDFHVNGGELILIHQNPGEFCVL

human OX40L [2] = biological target: T2, human OX40L (human, UniProt P23510 51-183); assay: SPR
T2 construct: Protein in solution or immobilised (SPR, Gyrolab); construct not described; also called huOX40L; hOX40L
T2 sequence (looked up): T1 sequence with Q5R, E23K

cyno OX40L [3] = biological target: T1, cyno OX40L; assay: SPR KD against parental F027300042 (15B07)
human OX40L [4] = biological target: T2, human OX40L; assay: SPR KD against parental F027300042 (15B07)
[5] = biological target: T3, membrane bound human OX40L on CHO-KI cells (human, UniProt P23510 1-183); assay: cell-based or functional assay
T3 sequence (looked up): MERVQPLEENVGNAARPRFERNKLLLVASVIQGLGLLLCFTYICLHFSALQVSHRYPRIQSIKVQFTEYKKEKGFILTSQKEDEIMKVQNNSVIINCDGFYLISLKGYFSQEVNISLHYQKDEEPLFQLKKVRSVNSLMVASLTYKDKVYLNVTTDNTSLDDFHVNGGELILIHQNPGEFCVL

[6] = biological target: T4, membrane bound cyno OX40L on CHO-KI cells (cynomolgus monkey, UniProt G7NVH7 1-183); assay: cell-based or functional assay
T4 sequence: T3 sequence (looked up) with R55Q, K73E

B1: F027301552 (15B07AM) (VHH)
VHH: DVQLVESGGGVVQPGGSLRLSCAASRSIGRYDRMGWYRHRPGEPRELVATITGGSSINYGDSVKGRFTISIDNSKNTVYLQMNSLRPEDTALYYCNFNKYQISRDTWGQGTLVTVSS
B1 was tested, and the Kd (cyno OX40L [1]) was 0.108 nM, the Kd (human OX40L [2]) was 0.0853 nM and the “Fold improved affinity vs parental” value (cyno OX40L [3]) was 92 fold. For the same binder, the “Fold improved affinity vs parental” value (human OX40L [4]) was 53 fold, the “IC50 (nM) PBMC assay human OX40L” value [5] was 1.78 nM and the “IC50 (nM) PBMC assay cyno OX40L” value [6] was 7.58 nM.
